Assays:
Test in all cases: SPR
Details in all cases: read off a plot
[1] = biological target: hexa-His-tagged recombinant soluble human Fcγ receptor IIa, 134R (UniProt P12318)
[2] = biological target: hexa-His-tagged recombinant soluble human Fcγ receptor IIIa, 158F (UniProt P08637)
[3] = biological target: hexa-His-tagged recombinant soluble human Fcγ receptor I (UniProt P12314)
Chain of UniProt P12314 (P12314 16-292): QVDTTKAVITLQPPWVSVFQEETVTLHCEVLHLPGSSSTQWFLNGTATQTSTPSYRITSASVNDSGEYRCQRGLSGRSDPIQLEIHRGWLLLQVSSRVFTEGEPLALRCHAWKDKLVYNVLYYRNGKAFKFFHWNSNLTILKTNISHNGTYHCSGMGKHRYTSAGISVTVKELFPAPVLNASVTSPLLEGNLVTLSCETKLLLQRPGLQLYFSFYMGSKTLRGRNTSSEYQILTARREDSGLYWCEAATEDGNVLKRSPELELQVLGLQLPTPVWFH

Chain of UniProt P12318 (P12318 34-217 H167R): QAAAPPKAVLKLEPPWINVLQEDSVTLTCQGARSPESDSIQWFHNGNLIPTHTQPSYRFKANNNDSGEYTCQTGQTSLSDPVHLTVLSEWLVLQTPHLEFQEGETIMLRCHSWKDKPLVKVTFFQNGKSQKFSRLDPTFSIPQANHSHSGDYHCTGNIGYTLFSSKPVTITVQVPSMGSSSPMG
Chain of UniProt P08637 (P08637 17-208): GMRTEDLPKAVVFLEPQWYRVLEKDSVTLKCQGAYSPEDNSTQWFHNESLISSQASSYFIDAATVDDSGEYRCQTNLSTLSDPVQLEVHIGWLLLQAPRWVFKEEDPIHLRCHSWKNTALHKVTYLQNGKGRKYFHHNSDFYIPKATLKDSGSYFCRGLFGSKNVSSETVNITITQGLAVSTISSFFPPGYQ

| Kd ([1]; parent: est. 12) | Kd ([2]; parent: est. 5.0) | Kd ([3]; parent: est. 2.3) | Kd ([1]; parent: est. 18) | Kd ([2]; parent: est. 17) | Kd ([3]; parent: est. 11) | Substance |
| --- | --- | --- | --- | --- | --- | --- |
| 11 ×10^-7 M | 10 ×10^-7 M | 2.8 ×10^-8 M | – | – | – | nonfucosylated anti-CD20 chimeric IgG1 rituximab with a wild-type Fc region Y296L |
| – | – | – | 13 ×10^-7 M | 56 ×10^-7 M | 14 ×10^-8 M | fucosylated anti-CD20 chimeric IgG1 rituximab with a wild-type Fc region Y296G |
| – | – | – | 12 ×10^-7 M | – | 10 ×10^-8 M | fucosylated anti-CD20 chimeric IgG1 rituximab with a wild-type Fc region Y296N |
| 9.5 ×10^-7 M | 6 ×10^-7 M | 2.7 ×10^-8 M | – | – | – | nonfucosylated anti-CD20 chimeric IgG1 rituximab with a wild-type Fc region Y296D |
| – | – | – | 11 ×10^-7 M | – | 11 ×10^-8 M | fucosylated anti-CD20 chimeric IgG1 rituximab with a wild-type Fc region Y296H |
| 11 ×10^-7 M | 9.5 ×10^-7 M | 3.2 ×10^-8 M | – | – | – | nonfucosylated anti-CD20 chimeric IgG1 rituximab with a wild-type Fc region Y296M |
| – | – | – | 12 ×10^-7 M | 41 ×10^-7 M | 10 ×10^-8 M | fucosylated anti-CD20 chimeric IgG1 rituximab with a wild-type Fc region Y296R |
| – | 9 ×10^-7 M | 2.7 ×10^-8 M | – | – | – | nonfucosylated anti-CD20 chimeric IgG1 rituximab with a wild-type Fc region Y296E |
| – | – | – | 13 ×10^-7 M | 30 ×10^-7 M | 10 ×10^-8 M | fucosylated anti-CD20 chimeric IgG1 rituximab with a wild-type Fc region Y296S |
| 11 ×10^-7 M | 8 ×10^-7 M | 3.2 ×10^-8 M | – | – | – | nonfucosylated anti-CD20 chimeric IgG1 rituximab with a wild-type Fc region Y296N |
| 9.6 ×10^-7 M | 10 ×10^-7 M | 3 ×10^-8 M | – | – | – | nonfucosylated anti-CD20 chimeric IgG1 rituximab with a wild-type Fc region Y296T |
| 11 ×10^-7 M | 9 ×10^-7 M | 3 ×10^-8 M | – | – | – | nonfucosylated anti-CD20 chimeric IgG1 rituximab with a wild-type Fc region Y296V |
| – | – | – | 9.5 ×10^-7 M | 21 ×10^-7 M | 11 ×10^-8 M | fucosylated anti-CD20 chimeric IgG1 rituximab with a wild-type Fc region Y296F |
| 9.2 ×10^-7 M | 11 ×10^-7 M | 3.4 ×10^-8 M | – | – | – | nonfucosylated anti-CD20 chimeric IgG1 rituximab with a wild-type Fc region Y296S |
| – | – | – | 12 ×10^-7 M | 17 ×10^-7 M | 11 ×10^-8 M | fucosylated anti-CD20 chimeric IgG1 rituximab with a wild-type Fc region Y296D |
| – | – | – | 11 ×10^-7 M | 27 ×10^-7 M | 9.6 ×10^-8 M | fucosylated anti-CD20 chimeric IgG1 rituximab with a wild-type Fc region Y296Q |

| Kd ([1]; parent: est. 12) | Kd ([2]; parent: est. 5.0) | Kd ([3]; parent: est. 2.3) | Kd ([1]; parent: est. 18) | Kd ([2]; parent: est. 17) | Kd ([3]; parent: est. 11) | Substance |
| --- | --- | --- | --- | --- | --- | --- |
| – | – | – | 14 ×10^-7 M | – | 10 ×10^-8 M | fucosylated anti-CD20 chimeric IgG1 rituximab with a wild-type Fc region Y296V |
| – | – | – | 12 ×10^-7 M | – | 10 ×10^-8 M | fucosylated anti-CD20 chimeric IgG1 rituximab with a wild-type Fc region Y296I |
| 11 ×10^-7 M | 10 ×10^-7 M | 3.2 ×10^-8 M | – | – | – | nonfucosylated anti-CD20 chimeric IgG1 rituximab with a wild-type Fc region Y296Q |
| 10 ×10^-7 M | – | 3.3 ×10^-8 M | – | – | – | nonfucosylated anti-CD20 chimeric IgG1 rituximab with a wild-type Fc region Y296R |
| – | – | – | 11 ×10^-7 M | 20 ×10^-7 M | 12 ×10^-8 M | fucosylated anti-CD20 chimeric IgG1 rituximab with a wild-type Fc region Y296E |
| – | – | 7.4 ×10^-8 M | – | – | – | nonfucosylated anti-CD20 chimeric IgG1 rituximab with a wild-type Fc region Y296P |
| – | – | – | 12 ×10^-7 M | 32 ×10^-7 M | 12 ×10^-8 M | fucosylated anti-CD20 chimeric IgG1 rituximab with a wild-type Fc region Y296T |
| – | – | – | – | – | 18 ×10^-8 M | fucosylated anti-CD20 chimeric IgG1 rituximab with a wild-type Fc region Y296P |
| – | – | – | 10 ×10^-7 M | 17 ×10^-7 M | 9.8 ×10^-8 M | fucosylated anti-CD20 chimeric IgG1 rituximab with a wild-type Fc region Y296C |
| 7.5 ×10^-7 M | 6.5 ×10^-7 M | 3 ×10^-8 M | – | – | – | nonfucosylated anti-CD20 chimeric IgG1 rituximab with a wild-type Fc region Y296H |
| 9.8 ×10^-7 M | 6 ×10^-7 M | 2.6 ×10^-8 M | – | – | – | nonfucosylated anti-CD20 chimeric IgG1 rituximab with a wild-type Fc region Y296F |
| 10 ×10^-7 M | 9.5 ×10^-7 M | 3.2 ×10^-8 M | – | – | – | nonfucosylated anti-CD20 chimeric IgG1 rituximab with a wild-type Fc region Y296I |
| 8 ×10^-7 M | 6.5 ×10^-7 M | 3.3 ×10^-8 M | – | – | – | nonfucosylated anti-CD20 chimeric IgG1 rituximab with a wild-type Fc region Y296C |
| – | – | – | 13 ×10^-7 M | – | 10 ×10^-8 M | fucosylated anti-CD20 chimeric IgG1 rituximab with a wild-type Fc region Y296M |
| – | – | – | 9 ×10^-7 M | – | 11 ×10^-8 M | fucosylated anti-CD20 chimeric IgG1 rituximab with a wild-type Fc region Y296L |
